The target of assay [1] is HLA-A*02:01. Briefly: IEDB peptide-MHC binding, purified MHC/competitive/fluorescence; ≥ and ≤ were set here for values at or beyond the usual limits of such assays.
For a further assay, the target named is HLA-A*24:02. The assay is described as above.
Another assay has as its target HLA-B*07:02. Described as above.
The target of another assay is HLA-A*23:01. Briefly: IEDB peptide-MHC binding, purified MHC/direct/fluorescence; filed as Kd, often an IC50 or EC50 that approximates it; ≥ and ≤ were set here for values at or beyond the usual limits of such assays.
The target of assay [2] is HLA-A*24:03. The assay is described as above.
The next assay addresses HLA-B*46:01. Briefly: IEDB peptide-MHC binding, purified MHC/competitive/fluorescence; filed as Kd, often an IC50 or EC50 that approximates it; ≥ and ≤ were set here for values at or beyond the usual limits of such assays.
The target in assay [3] is HLA-A*02:03. The assay is described as follows: IEDB peptide-MHC binding, purified MHC/direct/fluorescence; filed as Kd, often an IC50 or EC50 that approximates it; ≥ and ≤ were set here for values at or beyond the usual limits of such assays. As to conditions: source organism: Orthohantavirus andesense.
The target of assay [4] is HLA-A*02:12. Described as above. Particulars: source organism: Orthohantavirus andesense.
Assay [5] concerns the target HLA-A*02:19. Described as above. Particulars: source organism: Orthohantavirus andesense.
Assay [6] deals with HLA-A*03:01. The assay is described as above. Particulars: source organism: Orthohantavirus andesense.
The target of assay [7] is HLA-A*24:03. Briefly: IEDB peptide-MHC binding, purified MHC/competitive/fluorescence; filed as Kd, often an IC50 or EC50 that approximates it; ≥ and ≤ were set here for values at or beyond the usual limits of such assays.
The target of the next assay is HLA-A*26:01. Described as above.
The next assay concerns the target HLA-B*18:01. The assay is described as above.
The next assay deals with HLA-B*27:03. The description is as above.
In another assay the target is HLA-B*39:01. Described as above.
A further assay addresses HLA-B*51:01. Described as above.
Another assay concerns the target HLA-B*57:01. The description is as above.
The target of a further assay is HLA-C*03:03. Briefly: IEDB peptide-MHC binding, purified MHC/direct/fluorescence; filed as Kd, often an IC50 or EC50 that approximates it; ≥ and ≤ were set here for values at or beyond the usual limits of such assays.
Another assay deals with HLA-C*05:01. Described as above.
The next assay concerns the target HLA-A*31:01. The assay is described as follows: IEDB peptide-MHC binding, purified MHC/competitive/fluorescence; filed as Kd, often an IC50 or EC50 that approximates it; ≥ and ≤ were set here for values at or beyond the usual limits of such assays. Particulars: source organism: Bacillus anthracis str. A0488.
For a further assay, the target named is HLA-C*12:03. The assay is described as follows: IEDB peptide-MHC binding, purified MHC/direct/fluorescence; filed as Kd, often an IC50 or EC50 that approximates it; ≥ and ≤ were set here for values at or beyond the usual limits of such assays. Particulars: source organism: Homo sapiens.
The target in assay [8] is HLA-B*15:01. The assay is described as follows: IEDB peptide-MHC binding, purified MHC/competitive/fluorescence; ≥ and ≤ were set here for values at or beyond the usual limits of such assays. As to conditions: source organism: Sudan ebolavirus.
Assay [9] has as its target HLA-A*02:01. Briefly: IEDB peptide-MHC binding, purified MHC/competitive/fluorescence; filed as Kd, often an IC50 or EC50 that approximates it; ≥ and ≤ were set here for values at or beyond the usual limits of such assays.
Assay [10] addresses HLA-A*02:03. Described as above. As to conditions: source organism: Yersinia mollaretii ATCC 43969.
Assay [11] concerns the target HLA-A*02:12. The description is as above.
The target in assay [12] is HLA-A*02:19. The description is as above.
The target of assay [13] is HLA-A*03:01. The assay is described as above.
Another assay concerns the target HLA-A*68:02. The assay is described as above.
Assay [14] addresses HLA-B*15:01. Described as above.
Another assay deals with HLA-B*15:17. The assay is described as above.
In assay [15] the target is HLA-A*03:01. The assay is described as follows: IEDB peptide-MHC binding, purified MHC/competitive/fluorescence; ≥ and ≤ were set here for values at or beyond the usual limits of such assays. As to conditions: source organism: Variola virus.
In the next assay the target is HLA-A*11:01. The description is as above. As to conditions: source organism: Variola virus.
A further assay deals with HLA-A*02:11. The assay is described as follows: IEDB peptide-MHC binding, purified MHC/competitive/fluorescence; filed as Kd, often an IC50 or EC50 that approximates it; ≥ and ≤ were set here for values at or beyond the usual limits of such assays. Particulars: source organism: Escherichia coli.
The next assay addresses HLA-A*69:01. The description is as above. Particulars: source organism: Escherichia coli.
Setting [16] is: source organism: Sudan ebolavirus.
Where [17] appears, read: source organism: Vibrio vulnificus CMCP6.
The mark [18] stands for this setting: source organism: Cryptosporidium parvum Iowa II.
Setting [19] is: source organism: Orthohantavirus andesense.
The mark [20] stands for this setting: source organism: human gammaherpesvirus 4.
Where [21] appears, read: source organism: Zaire ebolavirus.
[22] abbreviates: source organism: Yersinia mollaretii ATCC 43969.
The mark [23] stands for this setting: source organism: Escherichia coli.

The term IC50 denotes the concentration that gives 50% inhibition. A higher IC50 goes with weaker potency in that assay. The term Kd denotes the concentration at which binding is half-saturated. Read a high Kd as a looser complex.

Where only a bound is given, the exact number is not on record here.

For YTILNRKAI, the IC50 with HLA-A*02:01 [1] (setting [16]) is at least 226 µM; with HLA-A*24:02 (setting [16]), 9.02 µM; with HLA-B*07:02 (setting [16]) it was 20.1 µM.
Take SVYFAAFAF: the figures for the dissociation constant (Kd) with HLA-A*23:01 (setting [17]), in the assay with HLA-A*24:03 [2] (setting [17]) and in the assay with HLA-B*46:01 (source organism: Vibrio vulnificus YJ016) were 16 nM, 66 nM and at least 20 µM, respectively.
For the sequence GFKRGIFIF, the figures for the Kd with HLA-A*23:01 (setting [18]) and with HLA-A*24:03 [2] (setting [18]) were 2 nM and at most 1 nM, respectively.
As to RWASGVSEI, the dissociation constant (Kd) in the assay with HLA-A*02:03 [3] was at least 20 µM; with HLA-A*02:12 [4], at least 20 µM; with HLA-A*02:19 [5], at least 20 µM; in the assay with HLA-A*03:01 [6], at least 20 µM; with HLA-A*24:03 [7] (setting [19]), 0.2 nM; with HLA-A*26:01 (setting [19]), at least 20 µM. Besides, the equilibrium dissociation constant (Kd) with HLA-B*18:01 (setting [19]), in the assay with HLA-B*27:03 (setting [19]), with HLA-B*39:01 (setting [19]), with HLA-B*46:01 (setting [19]), with HLA-B*51:01 (setting [19]) and in the assay with HLA-B*57:01 (setting [19]) was at least 20 µM in each case.
Consider YSQGAFTPL, for which the Kd with HLA-C*03:03 (setting [20]) was at most 0.001 µM; in the assay with HLA-C*05:01 (setting [20]) it was 3080 nM.
On to NIKRTLAAM, for which the figures for the half-maximal inhibitory concentration (IC50) with HLA-A*02:01 [1] (setting [21]) and with HLA-B*07:02 (setting [21]) were at least 458 µM and at least 128 µM, respectively.
For HFFESLYAR, the results for the dissociation constant Kd with HLA-A*24:03 [7] (source organism: Bacillus anthracis str. A0488) and in the assay with HLA-A*31:01 were 4130 nM and 1.6 nM, respectively.
On to KAFQDVLYV, for which the Kd with HLA-C*12:03 is at most 1 nM.
Regarding GLMHNQNAL, the IC50 worked out at 3.85 µM with HLA-A*02:01 [1] (setting [16]), 36.6 µM with HLA-A*24:02 (setting [16]), 12.4 µM with HLA-B*07:02 (setting [16]) and 11.5 µM with HLA-B*15:01 [8].
For RVGRVNPGT, the IC50 with HLA-A*02:01 [1] (source organism: Variola virus) was determined as 11.4 µM; with HLA-B*07:02 (source organism: Variola virus), 21.4 µM.
Take MMWIPGWFG: the Kd with HLA-A*02:01 [9] (setting [22]) is at least 20 µM; with HLA-A*02:03 [10], at least 20 µM; in the assay with HLA-A*02:12 [11] (setting [22]), 185 nM; with HLA-A*02:19 [12] (setting [22]) it was at least 20 µM; with HLA-A*03:01 [13] (setting [22]), at least 20 µM; with HLA-A*24:03 [7] (setting [22]), at least 20000 nM. The equilibrium dissociation constant (Kd) with HLA-A*26:01 (setting [22]), with HLA-A*68:02 (setting [22]), in the assay with HLA-B*15:01 [14] (setting [22]), with HLA-B*15:17 (setting [22]), with HLA-B*18:01 (setting [22]) and with HLA-B*27:03 (setting [22]) was at least 20 µM each time. Besides, the equilibrium dissociation constant (Kd) with HLA-B*39:01 (setting [22]), in the assay with HLA-B*46:01 (setting [22]), with HLA-B*51:01 (setting [22]) and with HLA-B*57:01 (setting [22]) was at least 20 µM each time.
Turning to SLDDYNHLV, the dissociation constant Kd in the assay with HLA-C*03:03 (source organism: Homo sapiens) is at least 20 µM; with HLA-C*05:01 (source organism: Homo sapiens), 278 nM.
In the case of CIIGTVSKF, the Kd with HLA-A*23:01 (source organism: Amur virus) came out at 97 nM; with HLA-A*24:03 [2] (source organism: Amur virus), 49 nM.
IPLASLTPK: the IC50 with HLA-A*03:01 [15] was determined as 66.6 µM; with HLA-A*11:01, 6.66 µM; in the assay with HLA-A*24:02 (source organism: Variola virus), 22.1 µM; with HLA-B*07:02 (source organism: Variola virus), 5.73 µM.
For MFWKLPPWL, the Kd with HLA-A*02:01 [9] (setting [23]) is at least 20 µM; with HLA-A*02:11, 13.6 nM; in the assay with HLA-A*02:12 [11] (setting [23]) it was at least 20000 nM; in the assay with HLA-A*02:19 [12] (setting [23]), at least 20 µM; with HLA-A*03:01 [13] (setting [23]), at least 20 µM; with HLA-A*26:01 (setting [23]), at least 20 µM. Further, the dissociation constant Kd with HLA-A*68:02 (setting [23]), with HLA-A*69:01, in the assay with HLA-B*15:01 [14] (setting [23]), in the assay with HLA-B*15:17 (setting [23]), with HLA-B*18:01 (setting [23]) and with HLA-B*27:03 (setting [23]) was at least 20 µM in each case. The Kd with HLA-B*39:01 (setting [23]), in the assay with HLA-B*46:01 (setting [23]), in the assay with HLA-B*51:01 (setting [23]) and with HLA-B*57:01 (setting [23]) was at least 20 µM each time.
With QYTRNSFYI, in the assay with HLA-A*24:03 [7] (source organism: Escherichia coli 536), the Kd was 0.3 nM. In other words, the sub-nanomolar range.

(Values after the Immune Epitope Database (IEDB).)
